B1: SLC35F2 (parent)
chain: SFMPLVIKVTSATSVNLGILTADL
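Also: lentivirally expressed fusions sorted by FACS into six bins by GFP to DsRed ratio, PSI derived from sequencing read proportions per bin multiplied by bin number.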

Variants of: B1
Experiment: protein stability index of a GFP-peptide fusion (GPS, HEK-293T) (PSI 1-6); higher = more stable
Conditions: c terminus: a fixed tail appended
Work on SFMPLVIKVTSATSVNLGILTEDL [A22E] yielded a protein stability index of 2.99. With SFMPLVIKVTSATSVNLGILTQDL [A22Q] the protein stability index was 2.86. Work on SFMPLVIKVTSATSVNLGILTRDL [A22R] yielded a protein stability index of 2.35. SFMPLVIKVTSATSVNLGILTFDL [A22F] gave a protein stability index of 2.92. Work on SFMPLVIKVTSATSVNLGILTSDL [A22S] yielded a protein stability index of 2.88. With SFMPLVIKVTSATSVNLGIITADL [L20I] the protein stability index was 3.65. In the case of SFMPLVIKVTSATSVNLGIWTADL [L20W], the protein stability index is reported as 3.1. For SFMPLVIKVTSATSVNLGIPTADL [L20P], the protein stability index was 2.38. Work on SFMPLVIKVTSATSVNLGIKTADL [L20K] yielded a protein stability index of 1.93. Variant SFMPLVIKVTSATSVNLGIFTADL [L20F] has a protein stability index of 3.49. In the case of SFMPLVIKVTSATSVNLGISTADL [L20S], the protein stability index is reported as 2.8. SFMPLVIKVTSATSVNLGIMTADL [L20M] gave a protein stability index of 2.92. SFMPLVIKVTSATSVNLGIHTADL [L20H] gave a protein stability index of 3.07. In the case of SFMPLVIKVTSATSVNLGIVTADL [L20V], the protein stability index is reported as 3.65. Variant SFMPLVIKVTSATSVNLGIGTADL [L20G] has a protein stability index of 2.2. With SFMPLVIKVTSATSVNLFILTADL [G18F] the protein stability index was 3.03. For SFMPLVIKVTSATSVNLTILTADL [G18T], the protein stability index was 3.29. For SFMPLVIKVTSATSVNLRILTADL [G18R], the protein stability index was 3.18. With SFMPLVIKVTSATSVNLLILTADL [G18L] the protein stability index was 3.54. SFMPLVIKVTSATSVNLCILTADL [G18C] showed a protein stability index of 3.82. For SFMPLVIKVTSATSVNLEILTADL [G18E], the protein stability index was 2.91. In the case of SFMPLVIKVTSATSVNLQILTADL [G18Q], the protein stability index is reported as 4.06. SFMPLVIKVTSATSVNLKILTADL [G18K] gave a protein stability index of 2.9. SFMPLVIKVTSATSVNLDILTADL [G18D] showed a protein stability index of 3.2. Work on SFMWLVIKVTSATSVNLGILTADL [P4W] yielded a protein stability index of 3.07. With SFMDLVIKVTSATSVNLGILTADL [P4D] the protein stability index was 1.64. With SFMRLVIKVTSATSVNLGILTADL [P4R] the protein stability index was 5.37. Variant SFMHLVIKVTSATSVNLGILTADL [P4H] has a protein stability index of 3.09. In the case of SFMFLVIKVTSATSVNLGILTADL [P4F], the protein stability index is reported as 1.91. For SFMELVIKVTSATSVNLGILTADL [P4E], the protein stability index was 3.23. SFMALVIKVTSATSVNLGILTADL [P4A] gave a protein stability index of 2.68. With SFMTLVIKVTSATSVNLGILTADL [P4T] the protein stability index was 2.71. Work on SFMPLTIKVTSATSVNLGILTADL [V6T] yielded a protein stability index of 2.76. For SFMPLNIKVTSATSVNLGILTADL [V6N], the protein stability index was 2.29. In the case of SFMPLLIKVTSATSVNLGILTADL [V6L], the protein stability index is reported as 2.32. In the case of SFMPLKIKVTSATSVNLGILTADL [V6K], the protein stability index is reported as 2.88. In the case of SFMPLPIKVTSATSVNLGILTADL [V6P], the protein stability index is reported as 2.06. SFMPLYIKVTSATSVNLGILTADL [V6Y] showed a protein stability index of 3.21. For SFMPLSIKVTSATSVNLGILTADL [V6S], the protein stability index was 2. With SFMPLVIKVTSATSVNLGILNADL [T21N] the protein stability index was 1.87. SFMPLVIKVTSATSVNLGILHADL [T21H] gave a protein stability index of 4.75. In the case of SFMPLVIKVTSATSVNLGILPADL [T21P], the protein stability index is reported as 2.5. SFMPLVIKVTSATSVNLGILRADL [T21R] gave a protein stability index of 3.24. With SFMPLVIKVTSATSVNLGILGADL [T21G] the protein stability index was 2.24. For SFMPLVIKVTSATSVNLGILYADL [T21Y], the protein stability index was 3.83. In the case of SFMPLVIKVTSATSVNLGILDADL [T21D], the protein stability index is reported as 2.61. Variant SFMPLVIKVTSATSVNLGILSADL [T21S] has a protein stability index of 3.64. Work on SFMPLVIKVTSATSVNLGILQADL [T21Q] yielded a protein stability index of 2.79. SFMPLVIKVTSATSVNLGILFADL [T21F] showed a protein stability index of 1.85. Work on SFKPLVIKVTSATSVNLGILTADL [M3K] yielded a protein stability index of 2.4. Variant SFTPLVIKVTSATSVNLGILTADL [M3T] has a protein stability index of 2.79. SFPPLVIKVTSATSVNLGILTADL [M3P] gave a protein stability index of 3.32. Work on SFYPLVIKVTSATSVNLGILTADL [M3Y] yielded a protein stability index of 1.96. Variant SFRPLVIKVTSATSVNLGILTADL [M3R] has a protein stability index of 1.58. For SFSPLVIKVTSATSVNLGILTADL [M3S], the protein stability index was 3.76. SFCPLVIKVTSATSVNLGILTADL [M3C] gave a protein stability index of 1.59. Variant SFNPLVIKVTSATSVNLGILTADL [M3N] has a protein stability index of 3.15. SFDPLVIKVTSATSVNLGILTADL [M3D] gave a protein stability index of 2.11. In the case of SFMPLVIKVTSAMSVNLGILTADL [T13M], the protein stability index is reported as 2.34. In the case of SFMPLVIKVTSAHSVNLGILTADL [T13H], the protein stability index is reported as 4. In the case of SFMPLVIKVTSALSVNLGILTADL [T13L], the protein stability index is reported as 2.94. Variant SFMPLVIKVTSAYSVNLGILTADL [T13Y] has a protein stability index of 3.88. SFMPLVIKVTSAASVNLGILTADL [T13A] gave a protein stability index of 3.02. For SFMPLVIKVTSAKSVNLGILTADL [T13K], the protein stability index was 2.16. SFMPLVIKVTSAGSVNLGILTADL [T13G] showed a protein stability index of 2.38. SFMPLVIKVTSACSVNLGILTADL [T13C] gave a protein stability index of 3.16. With SFMPLVIKVTSADSVNLGILTADL [T13D] the protein stability index was 3.02. For SFMPLVIKVTSATMVNLGILTADL [S14M], the protein stability index was 2.72. SFMPLVIKVTSATFVNLGILTADL [S14F] showed a protein stability index of 2.94. SFMPLVIKVTSATRVNLGILTADL [S14R] showed a protein stability index of 2.42. Work on SFMPLVRKVTSATSVNLGILTADL [I7R] yielded a protein stability index of 2.16. SFMPLVVKVTSATSVNLGILTADL [I7V] showed a protein stability index of 3.05. Variant SFMPLVWKVTSATSVNLGILTADL [I7W] has a protein stability index of 3.77. SFMPLVHKVTSATSVNLGILTADL [I7H] showed a protein stability index of 1.57. In the case of SFMPLVEKVTSATSVNLGILTADL [I7E], the protein stability index is reported as 1.49. In the case of SFMPLVPKVTSATSVNLGILTADL [I7P], the protein stability index is reported as 1.88. In the case of SFMPLVAKVTSATSVNLGILTADL [I7A], the protein stability index is reported as 2.13. Variant SFMPLVQKVTSATSVNLGILTADL [I7Q] has a protein stability index of 2.26. In the case of SFMPLVFKVTSATSVNLGILTADL [I7F], the protein stability index is reported as 3.03. SFMPLVCKVTSATSVNLGILTADL [I7C] showed a protein stability index of 2.11. Work on SFMPLVIKVTSATSVNLGRLTADL [I19R] yielded a protein stability index of 2.08. SFMPLVIKVTSATSVNLGQLTADL [I19Q] gave a protein stability index of 2.64. In the case of SFMPLVIKVTSATSVNLGDLTADL [I19D], the protein stability index is reported as 1.97. Variant SFMPLVIKVTSATSVNLGSLTADL [I19S] has a protein stability index of 2.69. Work on SFMPLVIKVTSATSVNLGVLTADL [I19V] yielded a protein stability index of 2.77. Work on SDMPLVIKVTSATSVNLGILTADL [F2D] yielded a protein stability index of 2.12. Work on SKMPLVIKVTSATSVNLGILTADL [F2K] yielded a protein stability index of 3. In the case of SIMPLVIKVTSATSVNLGILTADL [F2I], the protein stability index is reported as 3.41. In the case of SEMPLVIKVTSATSVNLGILTADL [F2E], the protein stability index is reported as 2.65. Variant SSMPLVIKVTSATSVNLGILTADL [F2S] has a protein stability index of 2.92. Variant SMMPLVIKVTSATSVNLGILTADL [F2M] has a protein stability index of 2.47. In the case of SNMPLVIKVTSATSVNLGILTADL [F2N], the protein stability index is reported as 2.48. SFMPQVIKVTSATSVNLGILTADL [L5Q] gave a protein stability index of 2.19. SFMPNVIKVTSATSVNLGILTADL [L5N] gave a protein stability index of 2.24.
